Measured values published in paper PMC9136605 (Acta Pharmaceutica Sinica. B, 2021).

Molecular target: the molecule itself
Assay: crystal structure

B1: human LDHC L56E/I332Q double mutant (LDHC-mutant), recombinant with C-terminal His6-tag (enzyme)
chain: not shown
Question: How did the “stoichiometry N” value turn out when B1 was run?
Answer: 4
